Patent publication US20150231240A1, “ANTI-C16ORF54 ANTIBODIES AND METHODS OF USE THEREOF” (priority 2012, published 2015)

Columns and labels:
[1] = target: T1, N-terminal 32 amino acids of huC16orf54 coupled to biotin (human, biotin at the C-terminus); test: biolayer interferometry (OctetQK384), hybridoma supernatant on streptavidin sensors coated with the biotinylated peptide
T1 construct: also called 32 amino acid N-terminal extracellular domain
T1 peptide: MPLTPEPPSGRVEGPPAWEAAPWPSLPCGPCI
Procedure: Eight anti-huC16orf54 monoclonal antibodies were further screened for binding and subsequent off-rate analysis using the OctetQK384® sytem (ForteBio). Hybridoma supernatants were screened for association to and dissocation from streptavidin sensors coated with the N-terminal 32 amino acids of huC16orf54 coupled to biotin, and the calculated offrates (kdis) are shown in Table 31. Cloned hybridomas with […] off-rates were carried forward for antibody purification.

human C16orf54 [2] = target: T2, human C16orf54 (human, UniProt Q6UWD8 1-224); test: flow cytometry, REH leukemia cells (endogenous C16orf54), 3 repeats
T2 construct: also called huC16orf54; hC16orf54
T2 sequence: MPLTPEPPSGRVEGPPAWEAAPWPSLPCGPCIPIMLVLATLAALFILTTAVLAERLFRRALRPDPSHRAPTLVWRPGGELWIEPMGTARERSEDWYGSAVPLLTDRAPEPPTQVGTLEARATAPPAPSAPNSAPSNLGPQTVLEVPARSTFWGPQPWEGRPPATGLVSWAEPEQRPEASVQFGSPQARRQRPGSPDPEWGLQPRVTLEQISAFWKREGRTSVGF

human C16orf54 [3] = target: T2, human C16orf54; test: flow cytometry, WSU-FSCCL lymphoma cells (endogenous C16orf54), 3 repeats
[4] = target: T3, human C16orf54 ECD fragment aa9-24 (human); test: peptide ELISA, 2 ug/ml peptide coated, 10 ug/ml antibody
T3 peptide: SGRVEGPPAWEAAPWP
Procedure: (§1) Anti-C16orf54 antibodies which bind to human C16orf54, including antibodies that are crossreactive with cyno C16orf54, were tested for their binding to various peptides derived from C16orf54 in a peptide ELISA. A 384-well high binding black microplate (Greiner) was incubated with 2 μg/ml of protein (human, cyno, or mouse extracellular domain peptides) for 16 hours, incubated for 1 hr with a blocking buffer (PBS with 5% Fetal Bovine Serum), washed four times with TBS with Tween, incubated for 1 hour with 10 μg/ml of anti-C16orf54 antibody, washed four times with TBS with Tween, incubated for 1 hour with 10 μg/ml of Peroxidase-AffiniPure Goat Anti-Mouse IgG, Fcγ Fragment Specific (Jackson ImmunoResearch), washed four times with TBS with Tween, and peroxidase was detected with a luminometer (Molecular Devices) upon addition of SuperSignal® ELISA Pico Chemiluminescent Substrate (Thermo Scientific). The luminescence signal was determined.

[5] = target: T4, human C16orf54 ECD fragment aa1-15 (human); test: as above
T4 peptide: MPLTPEPPSGRVEGP
Procedure: as §1

human C16orf54 [6] = target: T2, human C16orf54; test: flow cytometry, OCI-AML3 leukemia cells (endogenous C16orf54), 3 repeats
[7] = target: T5, N-terminal 32 amino acids of huC16orf54 (Homo sapiens, UniProt Q6UWD8); test: Affinity measurements of purified antibodies on OctetQK384; format: binding; details: purified antibody, streptavidin sensors coated with N-terminal 32 amino acids of huC16orf54 coupled to biotin
T5 sequence (Q6UWD8 1-32 limits assumed): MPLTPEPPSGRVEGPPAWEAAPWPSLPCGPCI
Procedure: Affinity measurements of purified anti-huC16orf54 antibodies were carried out on the OctetQK384® sytem (ForteBio). After coating streptavidin sensors with the N-terminal 32 amino acids of huC16orf54 coupled to biotin at the C-terminus, association and dissociation of purified anti-huC16orf54 antibodies was monitored. KD values were derived using ForteBio's software.

[8] = target: T6, C16orf54 in cells and human tissues (Homo sapiens, UniProt Q6UWD8); test: Human C16orf54 immunohistochemistry (IHC); format: binding
T6 construct: from tissue; host or cells: isolated hematological tumour cells (lymphoma, AML, CLL) and human tissues, OCT-embedded frozen sections
T6 sequence (Q6UWD8 1-224): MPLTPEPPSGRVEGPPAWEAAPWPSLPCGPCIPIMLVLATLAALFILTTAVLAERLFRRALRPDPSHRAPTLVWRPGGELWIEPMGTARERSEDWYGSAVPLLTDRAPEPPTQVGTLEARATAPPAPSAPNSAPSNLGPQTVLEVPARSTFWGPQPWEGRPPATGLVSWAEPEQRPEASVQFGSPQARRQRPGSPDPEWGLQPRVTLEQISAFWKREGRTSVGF
Procedure: Anti-C16orf54 antibodies were used to detect C16orf54 expression as analyzed by immunohistochemistry (IHC). The transfected cell lines (5×10^7) and isolated hematological diseased cells were washed in PBS, centrifuged at 300 g for 10 minutes and the resultant cell pellets embedded and frozen in Tissue-Tek OCT compound (commercially available, e.g., Sakura Finetek USA, Inc., Torrence, Calif.; Fisher Scientific USA). 8 μm cryostat sections of the OCT embedded cells and human tissues were post-fixed in a 75% ethanol, 25% acetone mixture for 5 minutes followed by washing in PBS. The slides were then stained with exemplary primary anti-C16orf54 antibodies on a Dako Autostainer using standard avidin-biotin complex (ABC) IHC procedures. In some experiments, the endogenous peroxidase activity was blocked using Bloxall reagent (Vector SP-6000) for 5 minutes followed by avidin/biotin blocking reagents (Vector SP-2001) to block endogenous biotin within tissues. A pre-incubation with a protein blocker (Dako X0909) was performed followed by the primary antibodies incubation for 1 hour at room temperature. In some experiments, primary antibody 7-1C was diluted to a final concentration of 5 μg/ml and primary antibody 67-7A was diluted to a final concentration of 10 μg/ml using antibody diluent (Dako S3022). The control antibody used was a pan-mouse IgG antibody (Life Technologies 08-6599). In some experiments, after washing in PBS, the slides were incubated with a biotinylated horse anti-mouse antibody 1:200 (Vector BA-2001) for 30 minutes followed by a universal streptavidin-peroxidase conjugate (ABC-HRP Vector PK-6100) for 30 minutes. Diaminobenzedine was used as the chromagen (Sigma D5909) and the slides were counterstained with Mayers hematoxylin for 5 minutes, followed by dehydration and coverslipping.

B1: R29-7-1C (antibody, V domains shown)
VH: DVQLQESGPGLVKPSQSLSLTCTVTGYSITSDYAWNWIRQFPGNKLEWMGYISYSGSIRYNPSLKSRISITRDTSKNQFFLQLNSVTTEDTATYYCAREKYDNYYYAMDYWGQGTSVTVSS
VL: DIVMSQSPSSLAVSVGEKVTLSCKSSQNLLYSTNQKNYLAWYQQKPGQSPKLLIYWASTRESGVPDRFTGSGSGTDFTLTISSVKAEDLAVYYCQQYYSYRTFGGGTKLEIK
notes: Murine monoclonal IgG2a from a hybridoma
[1]
  koff: 0.0102 s⁻¹
Human C16orf54 [2]
  Average MFI fold change relative to isotype control: 6.4 fold
Human C16orf54 [3]
  Average MFI fold change relative to isotype control: 13.7 fold
[4]
  binding result: binds
[5]
  binding result: binds
Human C16orf54 [6]
  Average MFI fold change relative to isotype control: 3 fold

B2: R29-7-1C: murine anti-C16orf54 monoclonal antibody, IgG2a; VH SEQ ID NO: 8, VL SEQ ID NO: 10 (antibody, V domains shown)
VH: MRVLILLWLFTAFPGILSDVQLQESGPGLVKPSQSLSLTCTVTGYSITSDYAWNWIRQFPGNKLEWMGYISYSGSIRYNPSLKSRISITRDTSKNQFFLQLNSVTTEDTATYYCAREKYDNYYYAMDYWGQGTSVTVSS
VL: MDSQAQVLMLLLLWVSGTCGDIVMSQSPSSLAVSVGEKVTLSCKSSQNLLYSTNQKNYLAWYQQKPGQSPKLLIYWASTRESGVPDRFTGSGSGTDFTLTISSVKAEDLAVYYCQQYYSYRTFGGGTKLEIK
modifications: R29-7-1C heavy chain variable region; R29-7-1C light chain variable region
[7]
  kdis: 7.95e-05 ± 8.9e-06 s⁻¹
  kon: 68100 ± 6200 M⁻¹ s⁻¹

B3: R29-67-7A: murine anti-C16orf54 monoclonal antibody, IgG2a; VH SEQ ID NO: 12, VL SEQ ID NO: 14 (antibody, V domains shown)
VH: MRVLILLWLFTAFPGILSDVQLQESGPGLVKPSQSLSLTCTVTGYSITSDYAWNWIRQFPGNKLEWMGYINYSGRTRYNPSLNSRISLTRDTSTNQFFLQLNSVTTEDTATYYCARENYDYEFYAMDYWGQGTSVTVSS
VL: MESQAQVLMLLLLWVSGTCGDIVMSQSPSSLAVSVGEKVTMSCKSSQNLLYSSNQKNYLAWYQQKPGQSPKLLIYWASTRESGVPDRFTGSGSGTDFTLTISSVKAEDLAVYYCQQYYIYRTFGGGTKLEIK
modifications: R29-67-7A heavy chain variable region; R29-67-7A light chain variable region
[8]; AML sample AML-183L
  C16orf54 (67-7A) IHC: Positive
[8]; AML sample AML-205L
  C16orf54 (67-7A) IHC: Positive
[8]; AML sample AML-211L
  C16orf54 (67-7A) IHC: Positive
[8]; AML sample AML-213L
  C16orf54 (67-7A) IHC: Positive
[8]; CLL sample CLL-408L
  C16orf54 (67-7A) IHC: Positive
[8]; CLL sample CLL-BC042
  C16orf54 (67-7A) IHC: Positive
[8]; CLL sample CLL-BC043
  C16orf54 (67-7A) IHC: Positive
[8]; CLL sample CLL-UF048
  C16orf54 (67-7A) IHC: Positive
[8]; Lymphoma sample MD00402
  C16orf54 (67-7A) IHC: Positive
[8]; Lymphoma sample OD39986
  C16orf54 (67-7A) IHC: Positive
[8]; Lymphoma sample OD41079
  C16orf54 (67-7A) IHC: Positive
[8]; Lymphoma sample OD41411
  C16orf54 (67-7A) IHC: Positive
[8]; Lymphoma sample WD3517
  C16orf54 (67-7A) IHC: Positive
[8]; frozen sections, 10 μg/ml primary antibody
  IHC staining of hematological tumors: confirm the C16orf54 IHC expression in hematological tumors
